From PMC6363796, “Identification and characterization of a direct activator of a gene transfer agent” come the findings set out here.

The target in one data set is T1, GafA (Rhodobacter capsulatus, UniProt D5AUH1 1-382).
T1 sequence: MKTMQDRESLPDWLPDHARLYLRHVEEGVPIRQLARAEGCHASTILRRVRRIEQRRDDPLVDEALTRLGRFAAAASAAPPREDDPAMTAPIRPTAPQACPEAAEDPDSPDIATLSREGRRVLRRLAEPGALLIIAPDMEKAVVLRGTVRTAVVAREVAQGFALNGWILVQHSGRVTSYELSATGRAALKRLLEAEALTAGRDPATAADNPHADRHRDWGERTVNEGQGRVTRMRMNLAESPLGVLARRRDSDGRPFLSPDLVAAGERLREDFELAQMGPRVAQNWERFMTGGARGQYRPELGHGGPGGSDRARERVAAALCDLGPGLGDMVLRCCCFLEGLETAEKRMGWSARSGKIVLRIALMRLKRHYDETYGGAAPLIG
As to the kind of experiment: EMSA; 2 uM GafA; 80 nM Cy5-dsDNA, 25 mM HEPES pH 8.0, 50 mM K-glutamate, 50 mM MgSO4, 1 mM DTT, 0.1 mM EDTA, 0.05% Triton X-100, 1 ug poly dI:dC, 4% glycerol, 30 C 15 min; GtaR: 10 mM HEPES pH 8, 40 mM NaCl, 37 C 30 min; PCR products: pGTA 2 ng/ul, unlabelled 100 ng. The settings on record: protein: recombinant; tags: His6 (pCMF176) or His6-MBP (pCMF193); label: 5'-Cy5 (one strand); blunt.

For another data set, the target named is T2, CtrA (Rhodobacter capsulatus, UniProt D5ATW9 1-237).
T2 sequence: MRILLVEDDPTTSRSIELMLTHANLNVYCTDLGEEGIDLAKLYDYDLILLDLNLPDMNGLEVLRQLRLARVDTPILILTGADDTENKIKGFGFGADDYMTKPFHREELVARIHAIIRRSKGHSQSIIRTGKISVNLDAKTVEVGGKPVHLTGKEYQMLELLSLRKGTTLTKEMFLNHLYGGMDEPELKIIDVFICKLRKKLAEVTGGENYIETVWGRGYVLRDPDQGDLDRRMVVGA
Put plainly: EMSA; 80 nM Cy5-dsDNA, 25 mM HEPES pH 8.0, 50 mM K-glutamate, 50 mM MgSO4, 1 mM DTT, 0.1 mM EDTA, 0.05% Triton X-100, 1 ug poly dI:dC, 4% glycerol, 30 C 15 min; GtaR: 10 mM HEPES pH 8, 40 mM NaCl, 37 C 30 min; PCR products: pGTA 2 ng/ul, unlabelled 100 ng. The settings on record: protein: recombinant; tags: His6 (pEHisTEV, N-terminal); chain copies: 2; label: 5'-Cy5 (one strand); blunt. (In general: A gel shift assay detects complexes by their altered migration in electrophoresis.)

In the next data set the target is T3, GtaR (Rhodobacter capsulatus, UniProt D5AM23 1-203).
T3 sequence: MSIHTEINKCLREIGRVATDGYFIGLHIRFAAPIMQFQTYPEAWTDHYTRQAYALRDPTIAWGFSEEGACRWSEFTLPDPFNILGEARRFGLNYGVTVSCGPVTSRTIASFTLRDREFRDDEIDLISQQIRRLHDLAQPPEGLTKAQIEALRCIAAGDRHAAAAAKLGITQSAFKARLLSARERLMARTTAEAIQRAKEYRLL
As to the kind of experiment: EMSA; binding detected at 375 nM protein or above; GtaR buffer; 80 nM Cy5-dsDNA, 25 mM HEPES pH 8.0, 50 mM K-glutamate, 50 mM MgSO4, 1 mM DTT, 0.1 mM EDTA, 0.05% Triton X-100, 1 ug poly dI:dC, 4% glycerol, 30 C 15 min; GtaR: 10 mM HEPES pH 8, 40 mM NaCl, 37 C 30 min; PCR products: pGTA 2 ng/ul, unlabelled 100 ng. The settings on record: protein: recombinant; tags: His6 (pEHisTEV, N-terminal); chain copies: 2; label: 5'-Cy5 (one strand); blunt.

B1: pGTA4 (dsDNA)
DNA 1: TTCATTTCGCTCGTGCGGACAGGCATGAGAGGCGGGTCACGCAAGACATG
DNA 2: CATGTCTTGCGTGACCCGCCTCTCATGCCTGTCCGCACGAGCGAAATGAA
On to B1, for which the binding result with GafA is “no binding”.

B2: pGafA_50 (gafA promoter) (dsDNA)
DNA 1: TCGAGATCGCCCCATTTCTTAACCAAGGGGTAACCAAAGCAACCCACGGT
DNA 2: ACCGTGGGTTGCTTTGGTTACCCCTTGGTTAAGAAATGGGGCGATCTCGA
For the molecule B2, the Kd in the data set with CtrA turned out to be 54.9 nM. The binding result in the data set with GtaR was “binds”.

B3: pGTA1 (dsDNA)
DNA 1: TCCGGGGTTTTTTCTTTTCAGCGGGTGCAACCCTGAATATAGCACTTGAC
DNA 2: GTCAAGTGCTATATTCAGGGTTGCACCCGCTGAAAAGAAAAAACCCCGGA
Turning to B3, the binding result with GafA was “no binding”.

B4: pGTA5 (dsDNA)
DNA 1: GGCATGCTAGGAGAGGTGGGCAAGCGCCGCGGGTGACCGTGTGCGCTTTT
DNA 2: AAAAGCGCACACGGTCACCCGCGGCGCTTGCCCACCTCTCCTAGCATGCC
Take B4: the binding result in the data set with GafA was “no binding”.

B5: pGTA3 (dsDNA)
DNA 1: GCGCCGCGGGTGACCGTGTGCGCTTTTTTCATTTCGCTCGTGCGGACAGG
DNA 2: CCTGTCCGCACGAGCGAAATGAAAAAAGCGCACACGGTCACCCGCGGCGC
Consider B5, for which the binding result in the data set with GafA was “no binding”.

A word on the Kd: it is the constant that tells how readily two partners part at equilibrium.
